Data published in patent US20210115135A1 (ZHEJIANG SHIMAI PHARMACEUTICAL, published 2021).

T1: recombinant human LAG3 (Sino Biological Inc.) (human, UniProt P18627 23-450)
T1 construct: Bought recombinant protein; also called CD223; biotinylated recombinant human LAG3
T1 sequence (looked up): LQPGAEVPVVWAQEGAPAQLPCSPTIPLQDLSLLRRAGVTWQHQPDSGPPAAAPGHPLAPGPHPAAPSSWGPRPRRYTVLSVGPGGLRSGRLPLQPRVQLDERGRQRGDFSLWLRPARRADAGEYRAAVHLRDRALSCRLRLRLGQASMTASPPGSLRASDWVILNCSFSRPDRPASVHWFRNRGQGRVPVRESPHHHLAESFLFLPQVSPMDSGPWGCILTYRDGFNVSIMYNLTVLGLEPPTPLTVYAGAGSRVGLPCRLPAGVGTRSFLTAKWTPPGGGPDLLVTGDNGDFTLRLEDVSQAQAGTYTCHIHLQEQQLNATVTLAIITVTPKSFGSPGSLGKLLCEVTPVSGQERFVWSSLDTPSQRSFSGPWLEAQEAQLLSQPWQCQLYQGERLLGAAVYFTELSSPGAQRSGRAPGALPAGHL

T2: LAG3 of the Promega LAG3-MHCII Blockade Bioassay Kit (Cat. No.: CS194802) (UniProt P18627 23-525, limits assumed)
T2 sequence (looked up): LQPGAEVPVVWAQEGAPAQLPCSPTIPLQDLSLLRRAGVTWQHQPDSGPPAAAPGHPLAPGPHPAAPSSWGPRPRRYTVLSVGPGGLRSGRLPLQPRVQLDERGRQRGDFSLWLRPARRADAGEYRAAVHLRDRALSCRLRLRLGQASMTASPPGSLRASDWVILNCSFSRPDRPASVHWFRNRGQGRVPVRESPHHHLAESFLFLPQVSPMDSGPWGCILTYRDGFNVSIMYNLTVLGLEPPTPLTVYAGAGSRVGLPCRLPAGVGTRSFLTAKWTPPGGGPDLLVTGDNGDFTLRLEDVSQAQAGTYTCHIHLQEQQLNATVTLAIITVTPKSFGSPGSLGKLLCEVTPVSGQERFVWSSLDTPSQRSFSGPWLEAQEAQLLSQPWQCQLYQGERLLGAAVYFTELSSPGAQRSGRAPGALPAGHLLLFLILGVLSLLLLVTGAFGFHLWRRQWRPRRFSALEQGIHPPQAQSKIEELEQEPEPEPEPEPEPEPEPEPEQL

B1: DNV3.13 Fab (Fab, V domains shown)
VH: EVQLVQSGAEVKKPGASVKVSCKASGYTFTSYGISWVRQAPGQGLEWMGWISAYNGNTNYAQKLQGRVTMTTDTSTSTAYMELRSLRSDDTAVYYCARDSSSWWVDAFDIWGQGTMVTVSS
VL: SYVLTQPPSASGTPGQRVTMSCSGRYSNIGGNTVNWYHHLPGTAPTLLIYSNDQRPSGVPDRFSGSKSGTSASLAISGVQSEDEADYYCAAWDDNLNGLVFGTGTKVTVL
notes: Light-chain-shuffled Fab variant of DNV3
B2: DNV3.18 Fab (Fab, V domains shown)
VH: B1 VH
VL: SVVTQPPSVSEAPRQRVTISCSGSSSNIGNNAVNWYQQLPGKAPKLLIYYDDLLPSGVSDRFSGSKSGTSASLAISGLQSEDEADYYCAAWDDSLNAVVFGGGTKLTVL
notes: as for B1
B3: DNV3.15 Fab (Fab, V domains shown)
VH: B1 VH
VL: LPVLTQPPSASGTPGQRITISCSGSSSNIGSATVNWYQHLPGTAPKLLIYGDNQRPSGVADRFSGSKSGTSASLEIRGLQSEDEADYYCAAWDGSLDGVMFGGGTRVNVL
notes: as for B1
B4: DNV7 Fab (Fab, V domains shown)
VH: EVQLVESGAEVKKPGSSVKVSCKASGGTFSSYAISWVRQAPGQGLEWMGGIIPIFGTANYAQKFQGRVTITADKSTSTAYMELSSLRSEDTAVYYCALDGKSGFDLAFDIWGQGTMVTVSS
VL: DIQLTQSPSSLSASVGDRVTITCRASRRISSYLNWYQQKQGKAPQLLIYAASSLQSGVPSRFSGSGSGTEFTLTISSLQPEDFATYYCQQFNSYPLTFGGGTKVEIK
notes: Human Fab from a phage library, hexahistidine-tagged, detected through a FLAG tag, made in E. coli HB2151
B5: DNV2 Fab (Fab, V domains shown)
VH: EVQLVQSGAEVKKPGASVKVSCKASGGTFSSYTISWVRQAPGQGLEWMGGIIPIFGTANYAQKFQGRVTITADKSTSTAYMELSSLRSEDTAVYYCARDPVFDYWGQGTLVTVSS
VL: DIQLTQSPSSLSASVGDRVTITCRASQNIGTYLNWYQQKPGKAPKLLIYAASSLQSGVPSRFSGSGSGTDFTLTISSLQPEDFATYYCQQLNSYPITFGQGTRLEIK
notes: as for B4
B6: DNV6 Fab (Fab, V domains shown)
VH: EVQLVQSGAEVKKPGESLKISCKGSGYSFTSYWIGWVRQMPGKGLEWMGIIYPGDSDTRYSPSFQGQVTISADKSISTAYLQWSSLKASDTAMYYCASGAPGYYYDSSGYYAFDIWGQGTMVTVSS
VL: QSVVTQPPSVSGAPGQRVTVSCTGSSSNIGADFDVHWYQQLPGTAPKLLIYGNTNRPSGVPDRFSGSKSGTSASLAITGLQAEDEADYYCQSYDNSLSGVVFGGGTKVTVL
notes: as for B4
B7: DNV3 IgG4 (antibody)
heavy: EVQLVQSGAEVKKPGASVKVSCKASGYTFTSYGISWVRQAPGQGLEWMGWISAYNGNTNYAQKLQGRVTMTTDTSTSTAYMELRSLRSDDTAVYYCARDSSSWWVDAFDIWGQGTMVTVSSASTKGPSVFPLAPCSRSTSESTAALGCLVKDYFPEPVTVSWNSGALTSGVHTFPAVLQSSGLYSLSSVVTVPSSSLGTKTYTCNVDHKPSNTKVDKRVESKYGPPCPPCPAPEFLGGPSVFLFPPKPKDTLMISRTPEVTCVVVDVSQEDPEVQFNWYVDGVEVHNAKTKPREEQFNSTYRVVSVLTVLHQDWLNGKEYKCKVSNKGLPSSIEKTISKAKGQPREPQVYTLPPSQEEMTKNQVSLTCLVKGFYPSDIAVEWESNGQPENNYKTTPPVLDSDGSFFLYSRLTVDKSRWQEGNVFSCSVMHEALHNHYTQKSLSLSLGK
light: QSVLTQPPSVSAAPGQKVTISCSGSTSNIAINYVSWYQQVPGTVPKLLIYDDDKRPSGIPDRFSGSKSGTSATLDISGLQTGDEAHYYCGVWDNSLLAVLFGGGTSLTVLGQPKAAPSVTLFPPSSEELQANKATLVCLISDFYPGAVTVAWKADSSPVKAGVETTTPSKQSNNKYAASSYLSLTPEQWKSHRSYSCQVTHEGSTVEKTVAPTECS
notes: Human IgG4 made in 293FS cells; also called original DNV3 IgG4
B8: DNV3 IgG1 (antibody)
heavy: not shown
light: B7 light
notes: Human IgG1 made in 293FS cells
B9: DNV4 Fab (Fab, V domains shown)
VH: EVQLVQSGAEVKKPGSSVKVSCKASGGTFSSYAISWVRQAPGQGLEWMGGIIPIFGTANYAQKFQGRVTITADESTSTAYMELSSLRSEDTAVYYCAREKPTGGYYGMDVWGKGTLVTVSS
VL: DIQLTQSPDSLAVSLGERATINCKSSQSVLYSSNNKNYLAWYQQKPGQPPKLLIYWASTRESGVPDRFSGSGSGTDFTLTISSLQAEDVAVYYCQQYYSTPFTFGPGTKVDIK
notes: as for B4
B10: DNV5 Fab (Fab, V domains shown)
VH: QVQLVQSGAEVKKPGASVKVSCKASGGTFSSYAISWVRQAPGQGLEWMGGIIPIFGTANYAQKFQGRVTITADESTSTAYMELSSLRSEDTAVYYCARASPPAAYYYYYGMDVWGQGTTVTVSS
VL: DIQMTQSPSSLSASVGDRVTITCQASQDISNYLNWYQQKPGKAPKLLIYAASILQSGVPSRFSGSGSGTDFTLTISSLQPEDFATYYCQQSHSYSETFGQGTKVEIK
notes: as for B4

How the values were obtained:
[1] = biological target: T1, recombinant human LAG3 (Sino Biological …); test: ELISA, recombinant human LAG3 coated, Fab detected by anti-FLAG-HRP
Protocol: The hexahistidine-tagged antibodies were expressed in E. coli strain HB2151 and purified from the soluble fraction of periplasm by using the Ni-NTA resin. 7 monoclonal antibodies against human LAG3 were selected by panning a large phage-display library of naïve human antibodies in the format of antigen-binding fragment (Fab). Then ELISA was performed according to standard protocols. Briefly, recombinant human LAG3 (Sino Biological Inc.) was coated on Corning EIA/RIA high-binding 96-well plates (Corning Inc.) at 50 ng per well overnight at 4° C. and blocked with 3% nonfat milk in PBS (pH7.4). Fivefold serially diluted antibodies were added and incubated at room temperature for 2 h. The plates were washed with PBS containing 0.05% Tween 20. Bound antibodies were detected by HRP-conjugated anti-FLAG tag antibody (Sigma-Aldrich). The assay was developed at room temperature with TMB substrate (Sigma-Aldrich) and monitored at 450 nm with a microplate reader.

[2] = biological target: T1, recombinant human LAG3 (Sino Biological …); test: phage panning and monoclonal phage ELISA on recombinant human LAG3
Protocol: We have recently constructed a large (size, 10¹¹) phage-display naïve human Fab library with peripheral blood B cells from about 30 healthy individuals according to the previously published protocols (de Haard et al., J Biol Chem 1999, 274: 18218-18230). This library was used for selection of antibodies against recombinant human LAG3 conjugated to magnetic beads (Dynabeads M-270 epoxy; DYNAL Inc.) as described previously (Zhu et al., J Virol 2006, 80:891-899) except that we used 5, 1 and 0.1 μg of antigen in the first, second and third round of panning, respectively. Clones that bound to the antigen were identified from the third round of biopanning by using monoclonal phage ELISA as described (Zhu et al., J Virol 2006, 80:891-899).

[3] = biological target: T1, recombinant human LAG3 (Sino Biological …); test: ELISA, recombinant human LAG3 coated, IgG detected by anti-human IgG (Fc-specific)-HRP
Protocol: ELISA was performed according to standard protocols. Briefly, recombinant human LAG3 (Sino Biological Inc.) was coated on Corning EIA/RIA high-binding 96-well plates (Corning Inc.) at 50 ng per well overnight at 4° C. and blocked with 3% nonfat milk in PBS (pH7.4). Fivefold serially diluted antibodies were added and incubated at room temperature for 2 h. The plates were washed with PBS containing 0.05% Tween 20. Bound Fab and IgG antibodies were detected by HRP-conjugated anti-FLAG tag antibody and HRP-conjugated anti-human IgG (Fe-specific) antibody (Sigma-Aldrich), respectively. The assay was developed at room temperature with TMB substrate (Sigma-Aldrich) and monitored at 450 nm with a microplate reader. The half-maximal binding (EC₅₀) was calculated by fitting the data to the Langmuir adsorption isotherm. DNV3 IgG1 and IgG4 were cloned into the plasmid vectors pDin1 and pDin4, respectively. They were expressed and purified from transiently transfected 293 freestyle cell cultures with a yield of […]. In ELISA, both DNV3 IgG1 and IgG4 bound to recombinant human LAG3 with an EC₅₀ of approximately 0.5 nM (FIG. 5).

[4] = biological target: T2, LAG3 of the Promega LAG3-MHCII Blockade …; test: cell-based or functional assay

Binder | binding result [1] | binding result [2] | also measured
B1 | binds |  | 
B2 | binds |  | 
B3 | binds |  | 
B4 |  | binds | 
B5 |  | binds | 
B6 |  |  | EC50 [1]: ≤ 10 nM
B7 |  |  | EC50 [3]: ~0.5 nM; T cell activation, EC50 [4]: 8.7 nM
B8 |  |  | EC50 [3]: ~0.5 nM
B9 |  | binds | 
B10 |  |  | EC50 [1]: ≤ 10 nM
